According to the supplement of paper PMC10065799, “High-throughput profiling of sequence recognition by tyrosine kinases and SH2 domains using bacterial peptide display” (eLife, 2023):

Experiments:
[1] = target: Fes (UniProt P07332); test: phosphorylation enrichment, bacterial display (enrichment ratio); higher = better substrate or ligand; peptides without Tyr show the background
[2] = target: Jak2 (UniProt O60674); test: as above
[3] = test system: c-Src; test: as above
[4] = target: Fyn (UniProt P06241); test: as above
[5] = target: FGFR3 (UniProt P22607); test: as above
[6] = test system: c-Abl (mouse); test: as above
[7] = target: EPHB1 (UniProt P54762); test: as above
[8] = target: FGFR1 (UniProt P11362); test: as above
[9] = target: Hck (UniProt P08631); test: as above
[10] = test system: AncSZ; test: as above
[11] = target: EPHB2 (UniProt P29323); test: as above
[12] = target: MERTK (UniProt Q12866); test: as above
[13] = test system: Fer (mouse); test: as above
[14] = target: c-Src SH2; test: SH2 binding enrichment of the phosphorylated peptide, bacterial display (enrichment ratio); higher = better substrate or ligand; peptides without Tyr show the background
[15] = target: SHP2-C SH2; test: as above
[16] = target: Grb2 SH2 (UniProt P62993); test: as above
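Wherever SH2 binding enrichment of the phosphorylated peptide, bacterial display is given: peptide library displayed on the E. coli surface as eCPX fusions, selected cells deep-sequenced, score is each peptide's frequency after selection divided by its frequency in the input.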
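Wherever phosphorylation enrichment, bacterial display is given: 11-residue human phosphosite peptides and single-mutation variants displayed on the E. coli surface, counted by deep sequencing, each peptide's frequency after selection divided by its frequency in the unselected input library; frequency after pTyr selection over input frequency; kinase dosed for 20-30% of maximal phosphorylation in three min.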

Chain of EPHB2 (P29323 whole entry, looked up): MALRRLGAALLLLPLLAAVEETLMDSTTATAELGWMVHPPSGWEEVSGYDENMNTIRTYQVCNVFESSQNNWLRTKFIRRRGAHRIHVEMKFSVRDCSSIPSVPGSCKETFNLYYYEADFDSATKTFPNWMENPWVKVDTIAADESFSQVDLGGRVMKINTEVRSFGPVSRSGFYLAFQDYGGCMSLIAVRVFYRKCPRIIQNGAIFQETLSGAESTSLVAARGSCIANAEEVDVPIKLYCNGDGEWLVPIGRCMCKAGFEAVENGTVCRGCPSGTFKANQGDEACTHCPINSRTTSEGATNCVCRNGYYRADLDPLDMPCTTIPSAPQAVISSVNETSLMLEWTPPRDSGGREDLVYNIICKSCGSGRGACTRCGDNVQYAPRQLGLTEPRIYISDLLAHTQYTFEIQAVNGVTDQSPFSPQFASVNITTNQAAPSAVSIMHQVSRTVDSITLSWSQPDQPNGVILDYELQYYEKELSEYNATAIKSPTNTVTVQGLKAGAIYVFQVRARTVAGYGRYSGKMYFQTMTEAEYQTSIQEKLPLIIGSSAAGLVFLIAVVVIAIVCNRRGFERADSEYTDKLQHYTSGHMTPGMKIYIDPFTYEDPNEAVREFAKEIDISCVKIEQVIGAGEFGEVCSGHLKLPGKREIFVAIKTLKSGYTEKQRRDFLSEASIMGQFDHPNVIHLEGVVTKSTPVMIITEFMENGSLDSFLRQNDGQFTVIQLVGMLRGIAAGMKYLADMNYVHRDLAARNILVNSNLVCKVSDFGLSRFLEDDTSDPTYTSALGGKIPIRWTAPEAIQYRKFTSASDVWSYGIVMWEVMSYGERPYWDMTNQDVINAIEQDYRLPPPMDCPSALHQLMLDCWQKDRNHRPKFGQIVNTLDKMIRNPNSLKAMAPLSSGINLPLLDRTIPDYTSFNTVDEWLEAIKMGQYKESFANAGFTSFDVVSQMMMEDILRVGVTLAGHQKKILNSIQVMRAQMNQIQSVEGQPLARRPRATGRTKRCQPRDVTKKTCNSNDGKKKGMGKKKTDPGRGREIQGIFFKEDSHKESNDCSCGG
Chain of Hck (P08631 whole entry, looked up): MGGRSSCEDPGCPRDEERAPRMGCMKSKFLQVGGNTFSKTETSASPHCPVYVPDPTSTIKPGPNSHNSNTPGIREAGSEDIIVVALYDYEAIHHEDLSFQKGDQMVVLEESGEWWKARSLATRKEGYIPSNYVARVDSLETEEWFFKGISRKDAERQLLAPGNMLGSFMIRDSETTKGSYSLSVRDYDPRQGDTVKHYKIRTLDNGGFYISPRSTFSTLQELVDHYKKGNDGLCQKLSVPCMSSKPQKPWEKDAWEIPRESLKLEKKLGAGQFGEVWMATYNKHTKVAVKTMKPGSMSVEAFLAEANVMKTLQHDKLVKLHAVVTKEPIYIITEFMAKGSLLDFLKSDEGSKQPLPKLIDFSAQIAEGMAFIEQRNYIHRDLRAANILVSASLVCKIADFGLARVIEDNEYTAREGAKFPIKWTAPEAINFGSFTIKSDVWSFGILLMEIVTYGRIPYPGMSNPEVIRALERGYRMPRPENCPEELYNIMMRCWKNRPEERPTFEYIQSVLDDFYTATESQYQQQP
Chain of Fyn (P06241 whole entry, looked up): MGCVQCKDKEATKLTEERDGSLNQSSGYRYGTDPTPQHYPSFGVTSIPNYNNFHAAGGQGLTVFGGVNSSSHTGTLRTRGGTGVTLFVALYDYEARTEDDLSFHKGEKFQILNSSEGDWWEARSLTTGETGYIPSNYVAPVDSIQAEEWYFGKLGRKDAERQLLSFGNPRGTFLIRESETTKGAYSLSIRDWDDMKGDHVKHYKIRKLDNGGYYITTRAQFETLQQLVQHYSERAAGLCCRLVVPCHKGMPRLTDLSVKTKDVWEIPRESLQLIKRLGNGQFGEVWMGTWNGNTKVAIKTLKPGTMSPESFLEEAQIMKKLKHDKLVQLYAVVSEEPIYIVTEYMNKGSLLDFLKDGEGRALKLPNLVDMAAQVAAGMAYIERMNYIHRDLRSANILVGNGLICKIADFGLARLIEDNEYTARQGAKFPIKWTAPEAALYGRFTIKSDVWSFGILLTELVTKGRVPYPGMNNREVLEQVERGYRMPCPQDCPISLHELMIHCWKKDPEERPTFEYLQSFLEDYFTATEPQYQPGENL
Chain of Jak2 (O60674 whole entry, looked up): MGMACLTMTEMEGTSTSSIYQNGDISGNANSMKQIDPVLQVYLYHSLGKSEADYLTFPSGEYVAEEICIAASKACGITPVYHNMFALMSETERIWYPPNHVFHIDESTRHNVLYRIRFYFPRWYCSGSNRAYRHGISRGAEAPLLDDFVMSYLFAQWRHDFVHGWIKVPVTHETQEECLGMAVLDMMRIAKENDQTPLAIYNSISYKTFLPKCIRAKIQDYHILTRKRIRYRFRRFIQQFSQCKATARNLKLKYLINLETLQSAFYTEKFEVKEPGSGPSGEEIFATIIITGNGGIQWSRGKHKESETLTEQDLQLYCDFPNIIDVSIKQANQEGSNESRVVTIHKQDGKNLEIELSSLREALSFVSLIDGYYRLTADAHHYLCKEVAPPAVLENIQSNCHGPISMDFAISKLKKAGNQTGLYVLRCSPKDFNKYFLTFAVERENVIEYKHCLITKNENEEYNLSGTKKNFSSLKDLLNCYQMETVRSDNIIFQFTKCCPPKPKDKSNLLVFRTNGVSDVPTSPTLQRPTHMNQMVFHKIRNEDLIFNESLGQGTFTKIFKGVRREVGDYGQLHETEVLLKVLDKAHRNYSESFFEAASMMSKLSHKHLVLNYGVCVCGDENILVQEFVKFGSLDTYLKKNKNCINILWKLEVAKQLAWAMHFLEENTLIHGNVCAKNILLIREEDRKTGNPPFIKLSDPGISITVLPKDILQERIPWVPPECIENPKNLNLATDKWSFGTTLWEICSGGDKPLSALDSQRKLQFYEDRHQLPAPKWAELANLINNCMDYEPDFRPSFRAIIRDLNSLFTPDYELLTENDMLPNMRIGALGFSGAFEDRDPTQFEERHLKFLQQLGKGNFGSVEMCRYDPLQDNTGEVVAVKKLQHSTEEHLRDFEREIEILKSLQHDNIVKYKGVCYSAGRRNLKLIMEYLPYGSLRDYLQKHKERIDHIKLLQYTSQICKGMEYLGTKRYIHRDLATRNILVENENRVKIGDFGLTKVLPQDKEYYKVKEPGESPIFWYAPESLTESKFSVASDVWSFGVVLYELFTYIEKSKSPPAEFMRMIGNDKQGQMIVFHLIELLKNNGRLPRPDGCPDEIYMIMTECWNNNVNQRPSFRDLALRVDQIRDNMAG
Chain of Fes (P07332 whole entry, looked up): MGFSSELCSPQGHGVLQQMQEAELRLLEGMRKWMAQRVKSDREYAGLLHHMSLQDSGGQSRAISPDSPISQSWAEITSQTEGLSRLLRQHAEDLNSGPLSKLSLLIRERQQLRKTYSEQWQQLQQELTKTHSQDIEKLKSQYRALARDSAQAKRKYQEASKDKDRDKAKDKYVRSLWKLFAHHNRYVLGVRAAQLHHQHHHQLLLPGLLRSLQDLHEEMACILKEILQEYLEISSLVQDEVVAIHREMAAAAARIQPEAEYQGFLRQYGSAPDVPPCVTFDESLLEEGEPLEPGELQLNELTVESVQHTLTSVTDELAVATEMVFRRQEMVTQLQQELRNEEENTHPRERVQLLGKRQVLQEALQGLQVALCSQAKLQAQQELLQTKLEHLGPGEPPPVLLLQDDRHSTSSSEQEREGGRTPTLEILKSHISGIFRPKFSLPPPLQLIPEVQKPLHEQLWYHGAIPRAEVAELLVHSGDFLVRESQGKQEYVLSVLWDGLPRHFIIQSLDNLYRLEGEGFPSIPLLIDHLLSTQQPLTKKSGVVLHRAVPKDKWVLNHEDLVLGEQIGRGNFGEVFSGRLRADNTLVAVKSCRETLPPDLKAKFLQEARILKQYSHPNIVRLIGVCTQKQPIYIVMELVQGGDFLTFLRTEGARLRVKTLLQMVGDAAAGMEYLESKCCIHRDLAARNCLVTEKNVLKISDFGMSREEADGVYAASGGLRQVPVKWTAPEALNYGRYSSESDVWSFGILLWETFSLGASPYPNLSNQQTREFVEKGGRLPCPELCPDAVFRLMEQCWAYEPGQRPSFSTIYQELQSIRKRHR
Chain of FGFR3 (P22607 whole entry, looked up): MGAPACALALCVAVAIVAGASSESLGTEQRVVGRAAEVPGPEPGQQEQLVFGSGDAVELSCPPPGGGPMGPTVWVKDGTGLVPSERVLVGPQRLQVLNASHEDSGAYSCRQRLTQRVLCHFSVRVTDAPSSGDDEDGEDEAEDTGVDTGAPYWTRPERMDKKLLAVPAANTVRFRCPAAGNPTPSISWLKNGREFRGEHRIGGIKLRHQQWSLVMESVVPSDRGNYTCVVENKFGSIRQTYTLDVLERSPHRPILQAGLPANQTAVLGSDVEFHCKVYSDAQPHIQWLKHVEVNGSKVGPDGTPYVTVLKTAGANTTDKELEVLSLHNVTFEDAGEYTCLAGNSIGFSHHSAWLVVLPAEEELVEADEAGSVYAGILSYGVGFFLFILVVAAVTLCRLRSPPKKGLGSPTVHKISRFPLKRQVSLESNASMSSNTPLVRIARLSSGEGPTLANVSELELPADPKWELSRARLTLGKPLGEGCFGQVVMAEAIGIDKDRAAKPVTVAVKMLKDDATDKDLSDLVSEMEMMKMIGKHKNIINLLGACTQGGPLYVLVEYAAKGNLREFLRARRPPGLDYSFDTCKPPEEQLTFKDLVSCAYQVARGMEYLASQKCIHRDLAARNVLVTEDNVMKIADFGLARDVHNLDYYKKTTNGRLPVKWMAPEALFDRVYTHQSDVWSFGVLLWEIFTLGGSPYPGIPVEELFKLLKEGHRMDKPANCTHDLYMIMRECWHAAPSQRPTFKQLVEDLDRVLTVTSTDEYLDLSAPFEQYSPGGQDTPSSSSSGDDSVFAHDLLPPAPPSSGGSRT

Sequence | phosphorylation enrichment [1] | phosphorylation enrichment [2] | phosphorylation enrichment [3] | phosphorylation enrichment [4] | phosphorylation enrichment [5] | phosphorylation enrichment [6] | phosphorylation enrichment [7] | phosphorylation enrichment [8] | phosphorylation enrichment [9] | phosphorylation enrichment [10] | phosphorylation enrichment [11] | phosphorylation enrichment [12] | phosphorylation enrichment [13] | SH2 binding enrichment [14] | SH2 binding enrichment [15] | SH2 binding enrichment [16]
TQRPFYKGGGG [TYROBP_Y112_YF] | 0.512 | 0.451 | 0.403 | 0.314 | 0.438 | 0.624 | 0.221 | 0.346 | 0.42 | 0.48 | 0.31 | 0.331 | 0.331 | 0.65 | 0.7 | 0.947
HITQVYGFFDE [PPP2CA_Y127_Q122H_YF] | 2.38 | 1.95 | 12.7 | 15.7 | 1.16 | 1.69 | 1.09 | 1.32 | 7.13 | 2.03 | 1.11 | 2.8 | 0.823 | 0.838 | 1.12 | 1.56
EQSGSYIWVPA [DLG1_Y895] | 1.16 | 1.19 | 0.511 | 0.471 | 5.15 | 0.807 | 0.892 | 8.59 | 0.487 | 1.86 | 0.615 | 3.33 | 0.514 | 0.682 | 0.604 | 0.925
HNVPIYEGFAL [ACTA1_Y168_YF] | 7.74 | 0.894 | 10.6 | 15.1 | 0.785 | 23.5 | 22.5 | 0.649 | 14.1 | 1.59 | 28.1 | 12.4 | 22.7 | 0.431 | 0.794 | 0.849
FLAVGYHKPHI [IDS_Y225] | 0.799 | 0.733 | 0.448 | 0.495 | 0.647 | 0.709 | 0.356 | 0.408 | 0.602 | 0.741 | 0.59 | 0.368 | 0.561 | 1.18 | 1.27 | 1.21
NGTVSYAIVAG [CDH23_Y1672_T1671S] | 0.961 | 0.703 | 0.456 | 0.638 | 0.593 | 0.591 | 0.661 | 0.496 | 0.479 | 0.778 | 0.575 | 0.792 | 0.448 | 3.88 | 46.5 | 0.873
HGDDDYDDPEL [CLNK_Y69_S65G] | 2 | 1.39 | 0.477 | 0.69 | 1.02 | 0.745 | 0.756 | 0.91 | 0.743 | 1.91 | 0.753 | 0.667 | 0.717 | 0.565 | 0.551 | 0.99
NDQANYSLNTD [ADA_Y290] | 0.982 | 0.981 | 0.535 | 0.585 | 0.749 | 0.814 | 0.623 | 0.566 | 0.465 | 0.966 | 0.68 | 0.561 | 0.498 | 0.554 | 0.696 | 0.764
KRISCYEARYQ [PFKFB3_Y194_S197R] | 0.746 | 0.735 | 0.365 | 0.479 | 0.523 | 0.526 | 0.466 | 0.392 | 0.388 | 0.708 | 0.415 | 0.357 | 0.4 | 0.591 | 0.682 | 0.915
KLFYIYTSGTT [SLC27A4_Y245] | 1.37 | 1.51 | 0.575 | 0.455 | 0.755 | 0.767 | 0.61 | 0.449 | 0.506 | 1.24 | 0.727 | 0.5 | 0.556 | 0.53 | 1.34 | 0.943
LLASRYDSPIN [ABLIM1_Y638] | 1.65 | 1.59 | 0.96 | 1.18 | 0.636 | 1.13 | 1.58 | 1.12 | 0.923 | 1.32 | 0.929 | 1.09 | 0.607 | 2.63 | 0.991 | 0.704
CATIHYNYMCN [TP53_Y234_T230A] | 0.896 | 0.717 | 0.389 | 0.464 | 0.563 | 0.511 | 0.591 | 0.6 | 0.487 | 0.78 | 1.99 | 0.435 | 0.573 | 6.91 | 3.31 | 1.23
RLDPVYFVAPA [LAMC2_Y250] | 0.787 | 1.73 | 7.69 | 11.5 | 5.76 | 1.82 | 5.28 | 6.89 | 8.92 | 1.46 | 4.85 | 5.95 | 0.523 | 0.594 | 0.915 | 0.897
CHSDDYVHISL [TSC1_Y406] | 1.13 | 0.958 | 0.495 | 0.502 | 1.07 | 0.781 | 0.768 | 1.23 | 0.554 | 1.27 | 0.65 | 0.436 | 0.491 | 0.539 | 0.593 | 0.762
KDHPDYKFPPR [SOX10_Y171_Q174P_YF] | 0.685 | 0.564 | 0.434 | 0.415 | 0.762 | 0.52 | 0.387 | 0.656 | 0.382 | 0.883 | 0.444 | 0.393 | 0.376 | 0.553 | 0.783 | 1
KSIQLYDTPYE [SHB_Y297_G293S] | 1.07 | 0.921 | 0.986 | 0.827 | 0.643 | 1.03 | 11.6 | 0.521 | 1.76 | 1.29 | 15.8 | 4.79 | 3.02 | 4.1 | 0.626 | 1.02
RWGQKYMTAVV [CYBA_Y72] | 0.665 | 0.409 | 0.312 | 0.488 | 0.884 | 0.328 | 0.494 | 0.654 | 0.609 | 0.731 | 0.783 | 0.452 | 0.568 | 0.948 | 0.698 | 1.57
